# Measured values from the RNAGym collection of RNA variant scans (doi:10.7554/elife.80360).
# B1: Hairpin Ribozyme (parent)
# chain: GUCCUCUUUCACGUGCGCGUGAAAGAGAGAAGUGAACCAGAGAAACACACGUUGUGGUAUAUUACCUGGUA
# Variants of: B1
# Test: self-cleavage, relative activity (ratio to wild type); higher = more cleavage; co-transcriptional
row,Variant,self-cleavage
1,GUCCUCUUUCACGUGCGCGUGAAAUAGAGAAGUGAACCAGAGAAACACACGUUGUGCUAUAUUACCUGGUA [G25U G57C],0.163
2,GUCCUCUUUCACGUGCGCGUGAAACAGAGAAGUCAACCAGAGAAACACACGUUGUGGUAUAUUACCUGGUA [G25C G34C],0.967
3,GUCCUCUUUCACGUGCGCGUGAAACAGAGAAGUGAACCAGAGAAACACACGUGGUGGUAUAUUACCUGGUA [G25C U53G],0.39
4,GUCCUCUUUCACGUGCGCGUGAAAUAGAGAAGUGAACCAAAGAAACACACGUUGUGGUAUAUUACCUGGUA [G25U G40A],0.256
5,GUCCUCUUUCACGUGCGCGUGAAAUAGAGAAGUGAACCACAGAAACACACGUUGUGGUAUAUUACCUGGUA [G25U G40C],0.131
6,GUCCUCUUUCACGUGCGCGUGAAAUAGAGAAGUGAACCAGAGAAACACACGUUGUGGUAUAUCACCUGGUA [G25U U63C],0.184
7,GUCCUCUUUCACGUGCGCGUGAAAUAGAGAAGUGAACCAGAGAAACACACGUUGUGGUAUAUGACCUGGUA [G25U U63G],0.174
8,GUCCUCUUUCACGUGCGCGUGAAAUAGAGAAGUGAACCAGAGAAACGCACGUUGUGGUAUAUUACCUGGUA [G25U A47G],0.0793
9,GUCCUCUUUCACGUGCGCGUGAAAUAGAGAAGUGAACCAGAGAAACCCACGUUGUGGUAUAUUACCUGGUA [G25U A47C],0.241
10,GUCCUCUUUCACGUGCGCGUGAAAUAGAGAAGUGAACCAGAGAAACAGACGUUGUGGUAUAUUACCUGGUA [G25U C48G],0.129
11,GUCCUCUUUCACGUGCGCGUGAAACAGAGAAGUGAACCAGAGAAACACACGCUGUGGUAUAUUACCUGGUA [G25C U52C],0.657
12,GUCCUCUUUCACGUGCGCGUGAAAGCGAGAAGUGAACCAGAGGAACACACGUUGUGGUAUAUUACCUGGUA [A26C A43G],0.144
13,GUCCUCUUUCACGUGCGCGUGAAAGCGAGAAGUGAACCAGAGUAACACACGUUGUGGUAUAUUACCUGGUA [A26C A43U],0.224
14,GUCCUCUUUCACGUGCGCGUGAAACAGAGAAGUGAACCAGAAAAACACACGUUGUGGUAUAUUACCUGGUA [G25C G42A],0.174
15,GUCCUCUUUCACGUGCGCGUGAAACAGAGAAGUGAACCAGAGAAACACACGUUGUGGUAUAUUACCUGGGA [G25C U70G],0.402
16,GUCCUCUUUCACGUGCGCGUGAAACAGAGAAGUGAACCAGAGAAACACACGUUGUGAUAUAUUACCUGGUA [G25C G57A],0.176
17,GUCCUCUUUCACGUGCGCGUGAAACAGAGAAGUGAACCAGAGAAACACACGUUGUGGUAUAUUACCUGUUA [G25C G69U],0.199
18,GUCCUCUUUCACGUGCGCGUGAAACAGAGAAGUGAACCAGAGAAACACACGUUGUGGUAUAUUACCUGCUA [G25C G69C],0.187
19,GUCCUCUUUCACGUGCGCGUGAAAUAGAGAAGUUAACCAGAGAAACACACGUUGUGGUAUAUUACCUGGUA [G25U G34U],1.28
20,GUCCUCUUUCACGUGCGCGUGAAAUAGAGAAGUCAACCAGAGAAACACACGUUGUGGUAUAUUACCUGGUA [G25U G34C],1.13
21,GUCCUCUUUCACGUGCGCGUGAAACAGAGAAGUGAACCAGAGAAACACACGUUGUGGUAUAUGACCUGGUA [G25C U63G],0.189
22,GUCCUCUUUCACGUGCGCGUGAAACAGAGAAGUGAACCAGAGAAACACACGUUGUGGUAUAUAACCUGGUA [G25C U63A],0.0846
23,GUCCUCUUUCACGUGCGCGUGAAACAGAGAAGUGAACCAGAGAAACACACGUUGUGGUAUAUCACCUGGUA [G25C U63C],0.204
24,GUCCUCUUUCACGUGCGCGUGAAAUAGAGAAGUGAACCAGAGAAACACACGUUGUGGUAUAUUACCUGGUU [G25U A71U],0.575
25,GUCCUCUUUCACGUGCGCGUGAAAUAGAGAAGUGAACCAGAGAAACACACGUUGUGGUAUAUUACCUGGUC [G25U A71C],1.08
26,GUCCUCUUUCACGUGCGCGUGAAAUAGAGAAGUGAACCAGAGAAACACACGUUGUGGUAAAUUACCUGGUA [G25U U60A],0.391

row,Variant,self-cleavage
1,GUCCUCUUUCACGUGCGCGUGAAACAGAGAAGUGAACCAGAGAAACACACGUUGUGGGAUAUUACCUGGUA [G25C U58G],0.403
2,GUCCUCUUUCACGUGCGCGUGAAAUAGAGAAGUGAACCUGAGAAACACACGUUGUGGUAUAUUACCUGGUA [G25U A39U],0.242
3,GUCCUCUUUCACGUGCGCGUGAAAGCGAGAAGUGAACCAGAGAACCACACGUUGUGGUAUAUUACCUGGUA [A26C A45C],0.155
4,GUCCUCUUUCACGUGCGCGUGAAAGCGAGAAGUGAUCCAGAGAAACACACGUUGUGGUAUAUUACCUGGUA [A26C A36U],0.556
5,GUCCUCUUUCACGUGCGCGUGAAAGCGAGAAGUGAGCCAGAGAAACACACGUUGUGGUAUAUUACCUGGUA [A26C A36G],0.846
6,GUCCUCUUUCACGUGCGCGUGAAAGCGAGAAGUGAACCAGGGAAACACACGUUGUGGUAUAUUACCUGGUA [A26C A41G],0.633
7,GUCCUCUUUCACGUGCGCGUGAAAGCGAGAAGUGAACCAGUGAAACACACGUUGUGGUAUAUUACCUGGUA [A26C A41U],0.74
8,GUCCUCUUUCACGUGCGCGUGAAAUAGAGAGGUGAACCAGAGAAACACACGUUGUGGUAUAUUACCUGGUA [G25U A31G],0.385
9,GUCCUCUUUCACGUGCGCGUGAAAUAGAGAAGUGAACCAGAGAAACACACGUAGUGGUAUAUUACCUGGUA [G25U U53A],0.647
10,GUCCUCUUUCACGUGCGCGUGAAACAGAGAAGUGAACCAGAGAAACACACGUUGCGGUAUAUUACCUGGUA [G25C U55C],0.108
11,GUCCUCUUUCACGUGCGCGUGAAACAGAGAAGUGAACCAGAGAAACACACGUUGAGGUAUAUUACCUGGUA [G25C U55A],0.163
12,GUCCUCUUUCACGUGCGCGUGAAACAGAGAAGUGAACCAGAGAAACACACGUUGGGGUAUAUUACCUGGUA [G25C U55G],0.13
13,GUCCUCUUUCACGUGCGCGUGAAAGCGAGAAGUGCACCAGAGAAACACACGUUGUGGUAUAUUACCUGGUA [A26C A35C],0.726
14,GUCCUCUUUCACGUGCGCGUGAAAUUGAGAAGUGAACCAGAGAAACACACGUUGUGGUAUAUUACCUGGUA [G25U A26U],0.542
15,GUCCUCUUUCACGUGCGCGUGAAAGCGAGAAGUGAACCGGAGAAACACACGUUGUGGUAUAUUACCUGGUA [A26C A39G],0.222
16,GUCCUCUUUCACGUGCGCGUGAAAGCGCGAAGUGAACCAGAGAAACACACGUUGUGGUAUAUUACCUGGUA [A26C A28C],0.329
17,GUCCUCUUUCACGUGCGCGUGAAAUAGAGAAGUGAACCAGAGAAUCACACGUUGUGGUAUAUUACCUGGUA [G25U A45U],0.162
18,GUCCUCUUUCACGUGCGCGUGAAAUAGAGAAGUGAACCAGAGAAGCACACGUUGUGGUAUAUUACCUGGUA [G25U A45G],0.118
19,GUCCUCUUUCACGUGCGCGUGAAAGCGAGAAGUGAACCAGAGAAACACGCGUUGUGGUAUAUUACCUGGUA [A26C A49G],0.461
20,GUCCUCUUUCACGUGCGCGUGAAAGCGAGAAGUGAACCAGAGAAACACUCGUUGUGGUAUAUUACCUGGUA [A26C A49U],0.239
21,GUCCUCUUUCACGUGCGCGUGAAAUAGAGAAGUGAUCCAGAGAAACACACGUUGUGGUAUAUUACCUGGUA [G25U A36U],0.4
22,GUCCUCUUUCACGUGCGCGUGAAAUAGAGAAGUGACCCAGAGAAACACACGUUGUGGUAUAUUACCUGGUA [G25U A36C],0.463
23,GUCCUCUUUCACGUGCGCGUGAAAUAGAGAAGUGAACCAGAGAAACACAUGUUGUGGUAUAUUACCUGGUA [G25U C50U],0.287
24,GUCCUCUUUCACGUGCGCGUGAAAUAGAGAAGUGAACCAGAGAAACACAGGUUGUGGUAUAUUACCUGGUA [G25U C50G],0.25
25,GUCCUCUUUCACGUGCGCGUGAAACAGAGAAGUGAACCAGAGAAACACACGUUGUGGUAUAAUACCUGGUA [G25C U62A],0.188
26,GUCCUCUUUCACGUGCGCGUGAAAUAGAGAAGUGAACCAGAGAAACACACGCUGUGGUAUAUUACCUGGUA [G25U U52C],0.626

row,Variant,self-cleavage
1,GUCCUCUUUCACGUGCGCGUGAAAUAGAGAAGUGAACCAGAGAAACACACGGUGUGGUAUAUUACCUGGUA [G25U U52G],0.696
2,GUCCUCUUUCACGUGCGCGUGAAAUAGAGAAGUGAACCAGAGAAACACACGUUGUGGUAUUUUACCUGGUA [G25U A61U],0.185
3,GUCCUCUUUCACGUGCGCGUGAAACAGAGAAGUGAACCAGAGAAACACACGUUUUGGUAUAUUACCUGGUA [G25C G54U],0.245
4,GUCCUCUUUCACGUGCGCGUGAAACAGAGAAGUGAACCAGAGAAACACACGUUAUGGUAUAUUACCUGGUA [G25C G54A],0.239
5,GUCCUCUUUCACGUGCGCGUGAAACAGAGAAGUGAACCAGAGAAACACACCUUGUGGUAUAUUACCUGGUA [G25C G51C],0.435
6,GUCCUCUUUCACGUGCGCGUGAAAUAGAGAAGCGAACCAGAGAAACACACGUUGUGGUAUAUUACCUGGUA [G25U U33C],0.145
7,GUCCUCUUUCACGUGCGCGUGAAAUAGAGAAGAGAACCAGAGAAACACACGUUGUGGUAUAUUACCUGGUA [G25U U33A],0.0923
8,GUCCUCUUUCACGUGCGCGUGAAAUAGAGAAGUGAACCAGAGAAACACACGUUGUGGUCUAUUACCUGGUA [G25U A59C],0.195
9,GUCCUCUUUCACGUGCGCGUGAAAUAGAGAAGUGAACCAGAGAAACACACCUUGUGGUAUAUUACCUGGUA [G25U G51C],0.589
10,GUCCUCUUUCACGUGCGCGUGAAACAGAGAAGUGAACCAGAGAAACACACGUUGUGGUAUAUUACCUUGUA [G25C G68U],0.206
11,GUCCUCUUUCACGUGCGCGUGAAACAGAGAAGUGAACCAGAGAAACACACGUUGUGGUAUAUUACCUCGUA [G25C G68C],0.187
12,GUCCUCUUUCACGUGCGCGUGAAAUAGAUAAGUGAACCAGAGAAACACACGUUGUGGUAUAUUACCUGGUA [G25U G29U],0.126
13,GUCCUCUUUCACGUGCGCGUGAAAUAGUGAAGUGAACCAGAGAAACACACGUUGUGGUAUAUUACCUGGUA [G25U A28U],0.509
14,GUCCUCUUUCACGUGCGCGUGAAAUAGAGAAGUGAACCAGAGAAACACACGUUUUGGUAUAUUACCUGGUA [G25U G54U],0.399
15,GUCCUCUUUCACGUGCGCGUGAAAGCGAGAAGUGAACCAGAGAAACACACGUUGUGGUGUAUUACCUGGUA [A26C A59G],0.0796
16,GUCCUCUUUCACGUGCGCGUGAAACAGAGAAGUGAACCACAGAAACACACGUUGUGGUAUAUUACCUGGUA [G25C G40C],0.102
17,GUCCUCUUUCACGUGCGCGUGAAACAGAGAAGUGAACCAUAGAAACACACGUUGUGGUAUAUUACCUGGUA [G25C G40U],0.12
18,GUCCUCUUUCACGUGCGCGUGAAAUAGAGAAGUGAACUAGAGAAACACACGUUGUGGUAUAUUACCUGGUA [G25U C38U],0.332
19,GUCCUCUUUCACGUGCGCGUGAAAUAGAGAAGUGUACCAGAGAAACACACGUUGUGGUAUAUUACCUGGUA [G25U A35U],0.474
20,GUCCUCUUUCACGUGCGCGUGAAAGCGAGAAGUGAACCAGAGAAACACACGUUGUGGUAUAUUCCCUGGUA [A26C A64C],0.216
21,GUCCUCUUUCACGUGCGCGUGAAAGCGAGAAGUGAACCAGAGAAACACACGUUGUGGUAUGUUACCUGGUA [A26C A61G],0.0543
22,GUCCUCUUUCACGUGCGCGUGAAAGCGAGAAGUGAACCAGAGAAACACACGUUGUGGUAUUUUACCUGGUA [A26C A61U],0.184
23,GUCCUCUUUCACGUGCGCGUGAAAUAGAGAAGUGAACCAGAGAAACACACGUUGUGGUAUAUUACCCGGUA [G25U U67C],0.178
24,GUCCUCUUUCACGUGCGCGUGAAAUAGAGAAGUGAACCAGAGAAACACACGUUGUGGUAUAUUACCGGGUA [G25U U67G],0.18
